Assay: yeast display, Sf9 membrane polyspecificity reagent, FACS + sequencing; frameworks hold sequencing errors
How it was run: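 A synthetic nanobody library was expressed on Saccharomyces cerevisiae BJ5465 by galactose induction for 36–48 hours. The library was stained for 1 hour at 4 °C with 10% biotinylated, detergent-solubilized Sf9 membrane reagent and enriched with streptavidin microbeads before FACS. Low and high (top ~1%) gates were set on anti-HA fluorescence for expression and streptavidin fluorescence for reagent binding, and each polyreactivity label reflects the gate of origin.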
With “QVQLVESGGGLVQAGGSLRLSCAASGFIFRYYTMGWYRQAPGKERELVASISRRGGSTYYADSVKGRFTISRDNAKNIVYVQMNSLKEVDTAVYYCNADRRLGDGYWGQGTQVTVSS” the “polyreactivity (PSR sort gate)” value was “high polyreactivity”.
For “QVQLVESGGGLVQAGGSLRLSCAASGFIFRYYTMGWYRQAPGKERELVATITSGGSTYYADSVKGRFTISRDNAKNTVYLQMNSLKPEDTAVYYCAKVRDVLWRFNYWGQGTQVTVSS”, the “polyreactivity (PSR sort gate)” value was “high polyreactivity”.
With “QVQLVESGGGLVQAGGSLRLSCAASGFIFRYYTMGWYRQAPGKERELVAVITSGGTTYYADSVKGRFTISRDNAKNTVYLQMNSLKPEDTAGAADQWTIHRWATYGYWGQGTQVTVSS” the “polyreactivity (PSR sort gate)” value was “low polyreactivity”.
With “QVQLVESGGGLVQAGGSLRLSCAASGFIFRYYTMGWYRQAPGKERELVAVITSGGTTYYADSVKGRFTISRDNAKNTVYLQMNSLKPEDTAVYYCAADTFYIYEDVLYVQGDYYWGQGTQVTVSS” the “polyreactivity (PSR sort gate)” value was “low polyreactivity”.
With “QVQLVESGGGLVQAGGSLRLSCAASGFIFSFYAMGWYRQAPGKERELVAAITSSGATTYYADSVKGRFTISRDNAKNTVYLQMNSLKPEDTAVYYCNAVYRRDTGYYRYYYWGQGTQVTVSS” the “polyreactivity (PSR sort gate)” value was “high polyreactivity”.
In the case of “QVQLVESGGGLVQAGGSLRLSCAASGFIFSGNAMGWYRQAPGKARELVAAISWSGTSTFYADSVKGRFTISRDNAKNTVYLQMHSLIPEDTAVYYCAAETYYSYWYRPHYDYWGQGTQVTVSS”, the “polyreactivity (PSR sort gate)” value was “low polyreactivity”.
In the case of “QVQLVESGGGLVQAGGSLRLSCAASGFIFSGNAMGWYRQAPGKERELVAAITWSDGSTYYADSVKGRFTISRDNAKNTVYFQINSLKPEDSAVYYCAVGALQITRYDSWGQGTQVTVSS”, the “polyreactivity (PSR sort gate)” value was “low polyreactivity”.
In the case of “QVQLVESGGGLVQAGGSLRLSCAASGFIFSGYAMGWYRQAPGKERELVATISGSGGSTYYADSVKGRFTISRDNAKNTVYLQMNSLKPEDTAVYYCNALYASSVRHKVTYDYWGQGTQVTVSS”, the “polyreactivity (PSR sort gate)” value was “high polyreactivity”.
With “QVQLVESGGGLVQAGGSLRLSCAASGFIFSHYAMGWYRQAPGKERELVAAISWSGDSTYYADSVKGRFTLSRDNAKNTVDLQMNSLKPEDTAVYYCNAVYFWVRYLKFLEFGYWGQGTQVTVSS” the “polyreactivity (PSR sort gate)” value was “high polyreactivity”.
For “QVQLVESGGGLVQAGGSLRLSCAASGFIFSKYAMGWYRQAPGKERELVAAITGGGSTNYADSVKGRFTISRDNAKNTVYLQMTSLKPEDTAVYYCAARGFTLTDYDRDLYYWGQGTQVTVSS”, the “polyreactivity (PSR sort gate)” value was “low polyreactivity”.
For “QVQLVESGGGLVQAGGSLRLSCAASGFIFSLYAMGWYRQAPGKERELVAAINWNGGRTYYADSVKGRFTISRDNAKNTVYLQMNSLKPEDTAVYYCAKLGYLGLDYWGQGTQVTVSS”, the “polyreactivity (PSR sort gate)” value was “high polyreactivity”.
In the case of “QVQLVESGGGLVQAGGSLRLSCAASGFIFSLYAMGWYRQAPGKERELVAAISKRGGSTNYADSVKGRFTISRDNAKNTVFLQMNSLKPEDTAVYYCAKARPGFLYDHWGQGTEVTVSS”, the “polyreactivity (PSR sort gate)” value was “high polyreactivity”.
With “QVQLVESGGGLVQAGGSLRLSCAASGFIFSQYAMGWYRQAPGTERELVAVISKSSGSTYYADSVKGRFTISCDNAKNTVYLQMNSLKPEDTAVYYCNRRYYYRTYDYWGQGTQVTVSS” the “polyreactivity (PSR sort gate)” value was “high polyreactivity”.
In the case of “QVQLVESGGGLVQAGGSLRLSCAASGFIFSRNAMGWYRQAPGKERELVAAISLRGGSTYYADSVKGRFTISRDNAKNTVYLQMNSLKPEDTAVYYCAADSVLTPYDYWVQGTQVTVSS”, the “polyreactivity (PSR sort gate)” value was “low polyreactivity”.
In the case of “QVQLVESGGGLVQAGGSLRLSCAASGFIFSRNAMGWYRQAPGKERELVAAISSTGGITYYADSVKGRFTISRDNAKITVYLQMNSLKPEDTAVYYCAAGFYGYARHSWYKYWGQGTQVTVSS”, the “polyreactivity (PSR sort gate)” value was “high polyreactivity”.
In the case of “QVQLVESGGGLVQAGGSLRLSCAASGFIFSSNAMGWYRQAPGKERELVAAITSSGGGTYYADSVKGRFTISRDNAKNTVYLQMNSLKPEDTAVYYCNAAYKYAIPSYGYWGQGTQVTVSS”, the “polyreactivity (PSR sort gate)” value was “low polyreactivity”.
For “QVQLVESGGGLVQAGGSLRLSCAASGFIFSSYAMGWYRQAPGKEMELVAAISWSGGRTYYADPVKGRFTISRDNAKNTVYLQLNSLKPEDTAVYYCNARYPYPYWYTSYDYWGQGTQVTVSS”, the “polyreactivity (PSR sort gate)” value was “high polyreactivity”.
In the case of “QVQLVESGGGLVQAGGSLRLSCAASGFIFSSYAMGWYRQAPGKERELVARISLSGGSTFYADSVKGRFTISRDNAKNTVYLQMNSLKPEDTAVYYCAARDFSTHFSPMDYWGQGPQVTVSS”, the “polyreactivity (PSR sort gate)” value was “low polyreactivity”.
For “QVQLVESGGGLVQAGGSLRLSCAASGFIFSTNFMGWYRQAPGKERELVADINTGGSTSYADSVKGRFTISRDNAKNTVYLQMNSLKPEDTAVYYCAAVLQYYYLSTDDPYDYWGQGTQVTVSS”, the “polyreactivity (PSR sort gate)” value was “low polyreactivity”.
In the case of “QVQLVESGGGLVQAGGSLRLSCAASGFIFSTYAMGWYRQAPGKERELVAAISWSGGRTNYADSVKGRFTISRDNAKNTVYLQMNSLKPEDTAVYYCAVGGERGARIGSNHRGSRYDYWGQGTQVTVSS”, the “polyreactivity (PSR sort gate)” value was “high polyreactivity”.
With “QVQLVESGGGLVQAGGSLRLSCAASGFIFSVYAMGWYRQAPGKERELVAVISTSGGRTYYADSVKGRFTISRDNAKNTVYLQMNSLKPEDTAVYYCAADGFQYTLGNYYWGQGTQVTVSS” the “polyreactivity (PSR sort gate)” value was “high polyreactivity”.
In the case of “QVQLVESGGGLVQAGGSLRLSCAASGFIFSWYAMGWYRQAPGKERELVAAIDQSGDSTYYADSVKGRFTISRDNAKNTVYLQMNSLKPEDTAVYYCAAQSYDYWYDYDYWGQGTQVTVSS”, the “polyreactivity (PSR sort gate)” value was “high polyreactivity”.
For “QVQLVESGGGLVQAGGSLRLSCAASGFIFSWYAMGWYRQAPGKERELVAAISRSGTRTYYADSVKGRFTISRDNAKNTVYLQMNSLKPEDTAVYYCAAAAKSWLFDYWGQGTQVTVSS”, the “polyreactivity (PSR sort gate)” value was “high polyreactivity”.
In the case of “QVQLVESGGGLVQAGGSLRLSCAASGFIFSYNAMGWYRQAPGKERELVAAISARGGSTYYADSVKGRFTISRDNAKNTVYLQMNSLKPEDTAVYYCNRKQAGHAQGYDYWGQGTQVTVSS”, the “polyreactivity (PSR sort gate)” value was “high polyreactivity”.
In the case of “QVQLVESGGGLVQAGGSLRLSCAASGFIFSYYAMGWYRQAPGKERELVAAINWSGGSTYYADSVKGRFTISRDNAKNTVFLQMNSLKPEDTAVYYCAAYSSWHPYDYWGQGTQVTVSS”, the “polyreactivity (PSR sort gate)” value was “high polyreactivity”.
With “QVQLVESGGGLVQAGGSLRLSCAASGFIFSYYAMGWYRQAPGKERELVAAISRNGGRTYYADSVKGRFTISRDNAKNTVYLQMNSLKPEDTAVYYCATGKIREDDYWGQGTQVTVSS” the “polyreactivity (PSR sort gate)” value was “high polyreactivity”.
With “QVQLVESGGGLVQAGGSLRLSCAASGFIFSYYAMGWYRQAPGKERELVAAISSSGSRTYYADSVKGRFTISRDNAKNTVYLQMNSLKPEDTAVYYCAARGAAKYGYWGQGTQVTVSS” the “polyreactivity (PSR sort gate)” value was “high polyreactivity”.
For “QVQLVESGGGLVQAGGSLRLSCAASGFIFSYYAMGWYRQAPGKERELVAAITQSGGGTYYADSVKGRFTISRDNAKNTVYLQMNSLKPEDTAVYYCAKSRRVYSREGWFHYRAYGYWGQGTQVTVSS”, the “polyreactivity (PSR sort gate)” value was “high polyreactivity”.
With “QVQLVESGGGLVQAGGSLRLSCAASGFIFSYYTMGWYRQAPGKERELVAAISRRGGSTYYADSVQGRFTISRDNAKNTVYLQRNSLKPEDTAVYYCAAPRDWDAGDYWGQGTQVTVSS” the “polyreactivity (PSR sort gate)” value was “high polyreactivity”.
With “QVQLVESGGGLVQAGGSLRLSCAASGFIFTDYAMAWYRQAPGKERELVAAISYGGRTYYADSVKGRFTISRDNAKNTVYLQMNSLKPEDTAVYYCAAEKWDRYSSWSDYWGQGTQVTVSS” the “polyreactivity (PSR sort gate)” value was “high polyreactivity”.
For “QVQLVESGGGLVQAGGSLRLSCAASGFIFTDYAMGWYRQAPGKERELVAAISSGGRTYYAVSVKGRFTISRDNAKNTVYIQMNSLKPEDTAVYYCARGGRAEGWGQGTQVTVSS”, the “polyreactivity (PSR sort gate)” value was “high polyreactivity”.
For “QVQLVESGGGLVQAGGSLRLSCAASGFIFTGNAMGWYRQAPGKERELLAAISSSGTRTYYADSVKGRFTISRDNASNTVYLQMNSLKPEDTAVYYCNKLYLVWNFYSGYDYWGQGTQVTVSS”, the “polyreactivity (PSR sort gate)” value was “high polyreactivity”.
With “QVQLVESGGGLVQAGGSLRLSCAASGFIFTGYAMGWYRQAPGKERELVAAISWTGDSTYYADSVKGRFTISRDNAKNTVYLQMNSLKPEDTAVYYCAARSYRKPSSRRFDYWGQGTQVTVSS” the “polyreactivity (PSR sort gate)” value was “low polyreactivity”.
In the case of “QVQLVESGGGLVQAGGSLRLSCAASGFIFTGYAMGWYRQAPGKERELVASISSGGSTYYADSVKGRFTISRDNAKNTVYLLMNSLKPEDTAVYYCNASVSLGRYPGNEYDYEYWGQGTQVTVSS”, the “polyreactivity (PSR sort gate)” value was “low polyreactivity”.
For “QVQLVESGGGLVQAGGSLRLSCAASGFIFTIYVMGWYRQAPGKERELVAAISKSVGRTYYADSVKGRFTISRDNAKNTVYLQMNSLKPEDTAVYYCAAVYVKYYGGSYDYWGQGTQVTVSS”, the “polyreactivity (PSR sort gate)” value was “high polyreactivity”.
With “QVQLVESGGGLVQAGGSLRLSCAASGFIFTLNAMGWYRQAPGKERELVASISSGVSTNYADSVKGRFTISRDNAKNTVYLQMNSLKPEDTAVYYCAARDTGPDGFEGDYWGQGTQVTVSS” the “polyreactivity (PSR sort gate)” value was “low polyreactivity”.
With “QVQLVESGGGLVQAGGSLRLSCAASGFIFTLYTMGWYRQAPGKERELVAAIDKNGSTYYADSVKGRFTISRDNAKNTVYLQMNSLKPEDTAVYYCAADDRYRGNREDYWGQGTQVNVSS” the “polyreactivity (PSR sort gate)” value was “low polyreactivity”.
For “QVQLVESGGGLVQAGGSLRLSCAASGFIFTPYAMGWYRQAPGKERELVAAIRNTGSTYYADSVKGRFTISRDNAKNTVYLQMNSLKPEDTAVYYCNARRYRWAVVKGGYWGQGTQVTVSS”, the “polyreactivity (PSR sort gate)” value was “high polyreactivity”.
In the case of “QVQLVESGGGLVQAGGSLRLSCAASGFIFTPYTMGWYSQAPGKERELVAAITDGSSTYYADSVKGRFTISRDNAKNTVYLQMNSLKPEDTALYYCNADGKPPYNSWLYDYWGQGTQVTVTS”, the “polyreactivity (PSR sort gate)” value was “low polyreactivity”.
With “QVQLVESGGGLVQAGGSLRLSCAASGFIFTQYAMGWYRQAPGKERELVAAISTSGGRTFYADSVKGRFTISRDNAKNTVYLQMNSLKPEDTAVYYCGARPGYLYDYWGQGTQVTVSS” the “polyreactivity (PSR sort gate)” value was “high polyreactivity”.
With “QVQLVESGGGLVQAGGSLRLSCAASGFIFTRNAMGLYRQAPGTERELVAVISYGGGSTYYADSVKGRFTISRDNAKNTVYLQMNSLKPEDTAVYYCAADQNWRYYYHYTYYYWGQGTQVTVSS” the “polyreactivity (PSR sort gate)” value was “high polyreactivity”.
In the case of “QVQLVESGGGLVQAGGSLRLSCAASGFIFTRYAMGWYRQAPGKERELVAVITSSGGTYYADSVKGRFTISRDNAKNTVYLQMNSLKPEDTAVYYCNAVLGYYTYDYWGQGTQVTVSS”, the “polyreactivity (PSR sort gate)” value was “high polyreactivity”.
For “QVQLVESGGGLVQAGGSLRLSCAASGFIFTVNAMGWYRQAPGKDRELVAAITSGGNTYYADSVKGRFTISRDNAKNTVYLQMNSLKPEDTAVYYCNAVFYTWSPYGTTVRSYGYWGQGTQVTVSS”, the “polyreactivity (PSR sort gate)” value was “high polyreactivity”.
